{"source": "patent US20250352615A1", "about": "“COMPOSITIONS AND METHODS FOR THE MODULATION OF PIEZO1 AND TRPV4” (Duke University, priority 2021, published 2025)", "key": {"Piezo1 [1]": {"target": "T1, Piezo1 (Mus musculus, UniProt E2JF22)", "T1 construct": "endogenous in cells; host or cells: freshly isolated mouse pancreatic acini (WT = Piezo1 fl/fl on a C57BL/6J background)", "test": "Mechanical pushing-induced [Ca2+]i in pancreatic acini", "type": "cell-based", "settings": "prior treatment with GsMTx4; blunt pipette 5 μm for 1 second", "method": "A borosilicate glass pipette (Sutter Instrument) was pulled using a pipette puller P-87 (Sutter Instruments) and made blunt with an MF-900 Microforge (Narishige). Acini were pushed once with a 2- to 3-μm tip blunt pipette to 5 μm for 1 second using a micromanipulator (World Precision Instruments).\nCalcium imaging in pancreatic acini was performed as previously described. The chemicals used in calcium imaging experiments included the following: Yoda1 (Tocris; 5586), GsMTx4 (Abcam; ab141871), 5′,6′-EET (Santa Cruz Biotechnology; sc-221066), AA (Millipore Sigma; A3611), HC067047 (Tocris; 4100), GSK1016790A (Millipore Sigma; G0798), RN1734 (Tocris; 3746), AACOCF3 (Tocris; 1462), YM26734 (Tocris; 2522), GF109203X (Tocris; 0741), and CCK8 (Sigma-Aldrich)."}, "pancreatic acini [2]": {"test_system": "pancreatic acini", "test": "Mitochondrial depolarization in pancreatic acini (TMRE)", "type": "cell-based, mouse", "settings": "GsMTx4 5 μM; Yoda1 50 μM; WT cells", "method": "Live-cell mitochondrial depolarization was analyzed using the mitochondrial labeling dye, TMRE. Isolated acini were plated on a thin-layered, Matrigel-coated, glass-bottom culture plate with DMEM/F12 and 10% FBS media and placed in a CO2 incubator for 1 hr at 37° C. After 1 hr, the acini were incubated with TMRE (200 nM) in the bath buffer containing 140 mM NaCl, 4.7 mM KCl, 2.0 CaCl2, 1 mM MgCl2, 10 mM HEPES, and 10 mM glucose (pH adjusted to 7.4 with NaOH) for 30 minutes. The TMRE dye was washed and replaced with fresh bath buffer. The images were captured with a Zeiss Axio observer Z1 microscope with MetaMorph software (Molecular Devices) at intervals of 600 ms. TMRE was excited at 540-600 nm and emission collected at 585-675 nm. Carbonyl cyanide 4-(trifluoromethoxy) phenylhydrazone (FCCP), which uncouples the oxidative phosphorylation process and depolarizes mitochondria, was used as a positive control. A maximum of 2 mitochondrial puncta were taken per acinar cell."}, "pancreatic acini [3]": {"test_system": "pancreatic acini", "test": "Trypsinogen activation in pancreatic acini (BZiPAR)", "type": "cell-based, mouse", "settings": "GsMTx4 5 μM", "method": "To visualize Piezo1-induced trypsinogen activation, acini were loaded with active trypsin enzyme substrate BZiPAR (10 μM). Na-HEPES buffer with 2 mM Ca^2+ was used during imaging. A Zeiss Axio observer Z1 with a high-sensitivity EMCCD camera with a ×40/0.75 EC-Plan-NeoFluar DIC objective was used to capture the Z-stack images with stack thickness of 3 μm at an interval of 12 seconds. The BZiPAR fluorescent wavelength Ex/Em was 498/521 nm. BZiPAR was excited at 470-510 nm and emission collected at 495-550 nm. The captured images were analyzed with MetaMorph software (Molecular Devices)."}, "Piezo1 [4]": {"target": "T1, Piezo1", "test": "Calcium imaging of Piezo1-mediated [Ca2+]i in mouse PSCs", "type": "cell-based", "settings": "GsMTx4 5 μM", "method": "(§1) Mouse and human PSCs were isolated using collagenase digestion. Modified Krebs Henseleit Buffer (KHB) solution (100 mL) was prepared as previously described by Romac et al., Nat. Commun. 9(1):1715 (2018). Pancreatic tissue was digested with 2 mg of collagenase NB 8 (SERVA, catalog 17456) dissolved in 10 mL of modified KHB solution containing 1 mg soybean trypsin inhibitor (SBTI 1-S; Millipore Sigma, catalog T9003) and 20 mg BSA (Thermo Fisher Scientific; BP1600-100). Digestion solution (5 mL) was used to inflate the pancreas. Pancreas with 5 mL of digestion solution was incubated in a shaking water bath for 10 minutes at 37° C. The solution was then discarded. The pancreas tissue was cut into small pieces and digested with fresh 5 mL digestion buffer. Tissue was incubated in a shaking water bath for 40 minutes at 37° C. The cells were then separated from tissue by pipetting up-down with a 10 mL pipette and passed sequentially through a 70 μm and a 40 μm cell strainer. The filtrate was centrifuged at 150×g for 3 minutes at room temperature. The cells were washed with 10 mL Leibovitz's media (Thermo Fisher Scientific, catalog 11415-064), passed through a 20 μm filter, and centrifuged at 80×g for 3 minutes at room temperature. The supernate was removed, and isolated stellate cells were plated on a thin-layered Matrigel-coated glass bottom culture plate (MatTek, P35G-0-14-C). Before plating the cells, Matrigel solution (Corning, catalog 354234) at a ratio of 1.5:100 DMEM/F12 (Thermo Fisher Scientific, catalog 11330-032) was poured onto the culture plate and incubated for 2 hr at 37° C. to form a thin layer of Matrigel coating. Matrigel mixture was removed, and the plate was washed with PBS before cells were plated. Cell culture media, DMEM/F12 with 5% FBS was used for mouse stellate cells. Fresh, human pancreatic tissue was digested with collagenase as described above with modifications. Collagenase (2.5 mg) in 10 mL of modified KHB solution was used for digestion. The digested tissues were filtered through a 100 μm cell strainer. The cells were cultured with DMEM/F12 with 10% FBS in a Matrigel-coated plate. After 24 hr, the cell media was replaced with fresh media to remove unattached and dead cells. After 2 days, cells were immunostained for GFAP and used for experiments. Perinuclear fat droplets were stained with BODIPY 493/503 (4,4-Difluoro-1,3,5,7,8-Pentamethyl-4-Bora-3a,4a-Diaza-s-Indacene; Invitrogen, catalog D3922) to confirm stellate cell quiescence. The cell viability following Yoda1 treatment was analyzed using the Live/Dead cell imaging kit (Thermo Fisher Scientific, catalog R37601). RNAs were isolated using the RiboPure Kit (Invitrogen, catalog AM1924) according to manufacturer's instructions.\n(§2) Fluid shear stress and mechanical pushing applied to stellate cells were achieved as previously described by Wang et al., J. Clin. Invest. 126(12): 4527-4536 (2016). Parallel-plate fluid flow chambers (μ-Slide I 0.4 Luer, or μ-Slide I 0.2 Luer from Ibidi) were used for fluid shear stress experiments. The fluid shear stress (T) was calculated using the formula: τ=η×[…] φ for μ-Slide I 0.4 Luer and τ=η×330.4 φ for μ-Slide I 0.2 Luer, where r represents viscosity of the medium and φ represents flow rate (according to the manufacturer's instructions, Ibidi). Mechanical pushing was achieved by applying a blunt borosilicate glass pipette once to the cell membrane with a deflection of 2-3 μm for 1 second using a micromanipulator (World Precision Instruments).\nCalcium 6-QF (Molecular Devices) dye was used for live-cell calcium imaging as described by Romac et al., Nat. Commun. 9(1):1715 (2018). Cells were imaged in HBSS buffer with 2 mM Ca^2+. Faintly and highly fluorescent loaded cells were excluded from analysis. […]"}, "Piezo1 [5]": {"target": "T2, Piezo1 (Homo sapiens, UniProt Q92508)", "T2 construct": "Fresh, human pancreatic tissue was digested with collagenase as described above with modifications; endogenous in cells; host or cells: primary human pancreatic stellate cells from fresh human pancreatic tissue", "test": "Calcium imaging of Piezo1-mediated [Ca2+]i in human PSCs", "type": "cell-based", "settings": "GsMTx4 5 μM, human PSCs", "method": "Mouse and human PSCs were isolated using collagenase digestion. Modified Krebs Henseleit Buffer (KHB) solution (100 mL) was prepared as previously described by Romac et al., Nat. Commun. 9(1):1715 (2018). Pancreatic tissue was digested with 2 mg of collagenase NB 8 (SERVA, catalog 17456) dissolved in 10 mL of modified KHB solution containing 1 mg soybean trypsin inhibitor (SBTI 1-S; Millipore Sigma, catalog T9003) and 20 mg BSA (Thermo Fisher Scientific; BP1600-100). Digestion solution (5 mL) was used to inflate the pancreas. Pancreas with 5 mL of digestion solution was incubated in a shaking water bath for 10 minutes at 37° C. The solution was then discarded. The pancreas tissue was cut into small pieces and digested with fresh 5 mL digestion buffer. Tissue was incubated in a shaking water bath for 40 minutes at 37° C. The cells were then separated from tissue by pipetting up-down with a 10 mL pipette and passed sequentially through a 70 μm and a 40 μm cell strainer. The filtrate was centrifuged at 150×g for 3 minutes at room temperature. The cells were washed with 10 mL Leibovitz's media (Thermo Fisher Scientific, catalog 11415-064), passed through a 20 μm filter, and centrifuged at 80×g for 3 minutes at room temperature. The supernate was removed, and isolated stellate cells were plated on a thin-layered Matrigel-coated glass bottom culture plate (MatTek, P35G-0-14-C). […] The cell viability following Yoda1 treatment was analyzed using the Live/Dead cell imaging kit (Thermo Fisher Scientific, catalog R37601). […]\nFluid shear stress and mechanical pushing applied to stellate cells were achieved as previously described by Wang et al., J. Clin. Invest. […] The fluid shear stress (T) was calculated using the formula: τ=η×[…] φ for μ-Slide I 0.4 Luer and τ=η×330.4 φ for μ-Slide I 0.2 Luer, where r represents viscosity of the medium and φ represents flow rate (according to the manufacturer's instructions, Ibidi). […]"}, "human PSCs": {"test_system": "human PSCs", "test": "Human PSC activation and fibrogenic response (fat droplets, cell shape, ECM mRNA and immunostaining)", "type": "cell-based", "settings": "GsMTx4 5 μM, 12 or 25 dyne/cm^2 for 10 minutes", "method": "as §1, §2\nMouse and human PSCs were washed with PBS (pH 7.4) and fixed with 4% paraformaldehyde for 10 minutes at room temperature. The fixed cells were treated with 0.1% Triton X-100. […]"}, "Piezo1 [6]": {"target": "T1, Piezo1", "settings": "pancreatic acini; recently reported; cited from earlier work"}}}
{"substance": "GsMTx4 (GCLEFWWKCNPNDDKCCRPKLKCSKLFKLCNFSF; HELM PEPTIDE1{G.C.L.E.F.W.W.K.C.N.P.N.D.D.K.C.C.R.P.K.L.K.C.S.K.L.F.K.L.C.N.F.S.F.[am]}$PEPTIDE1,PEPTIDE1,16:R3-30:R3|PEPTIDE1,PEPTIDE1,2:R3-17:R3|PEPTIDE1,PEPTIDE1,9:R3-23:R3$$$V2.0; N-terminus assumed; SMILES CC(C)C[C@@H]1NC(=O)[C@@H](NC(=O)CN)CSSC[C@@H]2NC(=O)[C@@H]3CSSC[C@@H](C(=O)N[C@@H](CC(N)=O)C(=O)N[C@@H](Cc4ccccc4)C(=O)N[C@@H](CO)C(=O)N[C@@H](Cc4ccccc4)C(N)=O)NC(=O)[C@H](CC(C)C)NC(=O)[C@H](CCCCN)NC(=O)[C@H](Cc4ccccc4)NC(=O)[C@H](CC(C)C)NC(=O)[C@H](CCCCN)NC(=O)[C@H](CO)NC(=O)[C@H](CSSC[C@H](NC(=O)[C@H](CCCCN)NC(=O)[C@H](Cc4c[nH]c5ccccc45)NC(=O)[C@H](Cc4c[nH]c5ccccc45)NC(=O)[C@H](Cc4ccccc4)NC(=O)[C@H](CCC(=O)O)NC1=O)C(=O)N[C@@H](CC(N)=O)C(=O)N1CCC[C@H]1C(=O)N[C@@H](CC(N)=O)C(=O)N[C@@H](CC(=O)O)C(=O)N[C@@H](CC(=O)O)C(=O)N[C@@H](CCCCN)C(=O)N3)NC(=O)[C@H](CCCCN)NC(=O)[C@H](CC(C)C)NC(=O)[C@H](CCCCN)NC(=O)[C@@H]1CCCN1C(=O)[C@H](CCCNC(=N)N)NC2=O; UniProt Q7YT39 47-80, looked up)", "values": [{"measurement": "effect on mechanical pushing-induced transient [Ca2+]i rise", "setting": "Piezo1 [1]", "result": "completely blocked"}, {"measurement": "effect on Yoda1-induced mitochondrial depolarization", "setting": "pancreatic acini [2]", "result": "blocked the Yoda1-induced mitochondrial depolarization"}, {"measurement": "effect on Yoda1-induced trypsin activation", "setting": "pancreatic acini [3]", "result": "blocked the Yoda1-induced trypsin activation"}, {"measurement": "effect on Yoda1-induced calcium rise", "setting": "Piezo1 [4]; mouse PSCs", "result": "blocked the calcium rise produced by Yoda1"}, {"measurement": "effect on shear stress-induced transient [Ca2+]i elevation in TRPV4-null PSCs", "setting": "Piezo1 [4]; 12 dyne/cm^2 for 1 minute", "result": "blocked the effects of high shear stress (12 dyne/cm^2 for 1 minute) on the transient [Ca^2+]i elevation"}, {"measurement": "effect on Yoda1 (25 μM)-mediated [Ca2+]i rise", "setting": "Piezo1 [5]", "result": "sensitive to GsMTx4 blockade"}, {"measurement": "effect on fluid shear stress-induced sustained [Ca2+]i increase", "setting": "Piezo1 [5]; 12 dyne/cm^2 for 1 minute", "result": "blocked"}, {"measurement": "effect on shear stress-mediated pathological changes (fat droplet loss, fibronectin, collagen type I)", "setting": "human PSCs", "result": "attenuated the shear stress-mediated pathological changes"}, {"measurement": "effect on Yoda1-mediated [Ca2+]i rise", "setting": "Piezo1 [6]", "result": "inhibits the Yoda1-mediated [Ca^2+]i rise"}]}
